The Kd is the equilibrium constant for the complex coming apart.

In one assay the target is AP180 399-598 (rat). Nature of the assay: ITC; AP2β2 mutants titrated into 0.04 mM AP180 399-598 in the cell; 25 °C; 150 mM NaCl, 50 mM Na-phosphate, 0.2 mM TCEP, pH 7.5; 1:1 binding model.
The target of assay [1] is AP180 IDR (residues 281–898 of AP180) (rat). Nature of the assay: NMR titration; unlabeled CHCTD (in 50 mM Na-phosphate pH 7.5, 150 mM NaCl, 2 mM DTT) titrated into 15N labeled AP180 in NMR buffer (pH 6); 1H-15N HSQC and 15N R1ρ; residue-wise KD from a linear fit of R1ρ against CHCTD concentration under the assumption of weak binding; 25 °C.
Assay [2] addresses AP180 segment 471–700 (rat). As to the kind of experiment: NMR titration; unlabeled AP2α titrated into 15N labeled AP180 (50 μM AP180 471–700, 90 μM AP180IDR); 1H-15N HSQC and 15N R1ρ; residue-wise KD from R1ρ against AP2α concentration; NMR buffer 50 mM Na-phosphate pH 6, 150 mM NaCl, 2 mM DTT, 25 °C.
Assay [3] addresses T1, AP2 β2-appendage domain with linker (residues 617–951) (bovine, UniProt Q08DS7 617-951).
T1 chain: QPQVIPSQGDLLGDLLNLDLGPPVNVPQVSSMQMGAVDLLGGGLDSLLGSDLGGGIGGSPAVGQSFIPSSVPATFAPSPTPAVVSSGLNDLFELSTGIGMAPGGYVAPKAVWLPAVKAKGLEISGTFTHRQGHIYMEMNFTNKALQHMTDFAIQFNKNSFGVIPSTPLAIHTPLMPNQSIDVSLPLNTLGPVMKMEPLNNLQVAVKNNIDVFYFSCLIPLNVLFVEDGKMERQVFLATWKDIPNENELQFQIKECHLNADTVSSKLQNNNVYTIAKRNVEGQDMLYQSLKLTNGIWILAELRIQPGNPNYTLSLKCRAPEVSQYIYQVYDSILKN
As to the kind of experiment: ITC. A general note: In ITC the heat of successive injections is recorded.

The target in assay [4] is AP180 segment 399–598 (rat). Nature of the assay: NMR CPMG relaxation dispersion; 100 μM 15N AP180 399–598 with 10 μM unlabeled AP2β2; 600 and 850 MHz; 22 residues fitted together with a two-state exchange model (ChemEx); KD calculated from pB under the assumption of 1:1 stoichiometry.
For assay [5], the target named is AP180 IDR (residues 281–898 of AP180) (rat). As to the kind of experiment: ITC; 0.03 mM AP180 construct in the cell (0.04 mM AP180 399–598 for the AP2β2 mutants), 2 μl steps of 0.3 mM AP2β2; 25 °C; 150 mM NaCl, 50 mM Na-phosphate, 0.2 mM TCEP, pH 7.5; 1:1 binding model.
Assay [6] has as its target AP180 segment 399–598 (rat). Described as above.
Assay [7] addresses AP180 430–500 (extended interaction motif, EIM) (rat). Described as above.

AP180 segment 471–700 (rat), sequence (Q05140 whole entry, the tested form may be a part): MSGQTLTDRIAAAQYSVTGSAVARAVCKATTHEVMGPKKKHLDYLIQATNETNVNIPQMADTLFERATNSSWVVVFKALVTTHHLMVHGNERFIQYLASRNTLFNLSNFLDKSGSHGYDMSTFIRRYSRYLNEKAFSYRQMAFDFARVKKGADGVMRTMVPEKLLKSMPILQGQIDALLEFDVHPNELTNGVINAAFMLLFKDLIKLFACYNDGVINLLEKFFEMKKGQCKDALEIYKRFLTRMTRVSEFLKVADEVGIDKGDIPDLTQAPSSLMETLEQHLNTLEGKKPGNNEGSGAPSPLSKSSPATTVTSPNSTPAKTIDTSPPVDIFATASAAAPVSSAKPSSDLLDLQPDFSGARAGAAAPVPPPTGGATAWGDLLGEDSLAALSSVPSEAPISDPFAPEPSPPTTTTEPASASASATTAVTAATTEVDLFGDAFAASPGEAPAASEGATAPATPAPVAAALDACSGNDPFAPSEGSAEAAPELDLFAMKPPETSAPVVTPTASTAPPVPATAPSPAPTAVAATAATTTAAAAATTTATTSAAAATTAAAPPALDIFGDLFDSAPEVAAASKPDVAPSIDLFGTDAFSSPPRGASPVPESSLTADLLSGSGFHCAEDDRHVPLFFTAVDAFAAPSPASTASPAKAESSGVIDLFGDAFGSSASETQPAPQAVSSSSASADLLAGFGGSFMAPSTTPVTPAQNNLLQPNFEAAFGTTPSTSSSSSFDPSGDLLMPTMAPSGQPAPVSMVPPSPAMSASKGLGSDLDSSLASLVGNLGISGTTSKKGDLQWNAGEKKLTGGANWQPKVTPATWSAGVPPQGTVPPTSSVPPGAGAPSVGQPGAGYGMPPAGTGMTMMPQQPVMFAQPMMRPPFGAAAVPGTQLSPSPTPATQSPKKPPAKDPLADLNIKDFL

As to AP2β2 Y888A (domain or fragment), the Kd with AP180 399-598 (rat) amounted to 7.3 µM.

In assay [1], “clathrin heavy chain terminal domain (residues 1–363) (from UniProt P49951 1-363) (domain or fragment)” returned a residue-wise KD (first residue of Fig. 2E) of 177 µM, a residue-wise KD (fourth residue of Fig. 2E) of 700 µM, a residue-wise KD (second residue of Fig. 2E) of 294 µM and a residue-wise KD (third residue of Fig. 2E) of 549 µM.

In turn, AP2β2 K842E (domain or fragment) registered a Kd in the assay with AP180 399-598 (rat) of 7.8 µM.

On to “AP2 α-appendage domain (residues 701–938) (from UniProt P17427 701-938) (domain or fragment)”, for which, in assay [2], the residue-wise KD (first residue of Fig. 3D) stood at 144 µM, the residue-wise KD (second residue of Fig. 3D) came out at 380 µM and the residue-wise KD (third residue of Fig. 3D) worked out at 414 µM.

As for AP2β2 Y815A (domain or fragment), the Kd with AP180 399-598 (rat) worked out at 4.9 µM.

B1: AP180 IDR (residues 281–898 of AP180) (domain or fragment)
chain: GHMHLNTLEGKKPGNNEGSGAPSPLSKSSPATTVTSPNSTPAKTIDTSPPVDIFATASAAAPVSSAKPSSDLLDLQPDFSGAAAGAAAPVPPPTGGATAWGDLLGEDSLAALSSVPSEAPISDPFAPEPSPPTTTTEPASASASATTAVTAATTEVDLFGDAFAASPGEAPAASEGATAPATPAPVAAALDACSGNDPFAPSEGSAEAAPELDLFAMKPPETSAPVVTPTASTAPPVPATAPSPAPTAVAATAAATTTTTAAAATTTATTSAAAAATAAAPPALDIFGDLFDSAPEVAAASKPDVAPSIDLFGTDAFSSPPRGASPVPESSLTADLLSVDAFAAPSPASTASPAKAESSGVIDLFGDAFGSSASETQPAPQAVSSSSASADLLAGFGGSFMAPSTTPVTPAQNNLLQPNFEAAFGTTPSTSSSSSFDPSGDLLMPTMAPSGQPAPVSMVPPSPAMSASKGLGSDLDSSLASLVGNLGISGTTSKKGDLQWNAGEKKLTGGANWQPKVTPATWSAGVPPQGTVPPTSSVPPGAGAPSVGQPGAGYGMPPAGTGMTMMPQQPVMFAQPMMRPPFGAAAVPGTQLSPSPTPATQSPKKPPAKDPLADLNIKDFLLEHHHHHH
B1 showed a Kd in assay [3] of 4.2 µM.

B2: AP2 β2-appendage domain with linker (residues 617–951) (domain or fragment)
chain: T1 chain
As to B2, the Kd in assay [4] is 10 µM; in assay [5], 6.97 µM; in assay [6] it was 5.1 µM; in assay [7], 2.5 µM. The exchange rate kex (kon [AP2β2] + koff) in assay [4] was 662 s⁻¹. In assay [4], the percentage of bound population of AP180 (10% AP2β2) was 8.9%.

The values are drawn from article PMC11246429 (2024).
